Our source for the stoichiometry N values is publication PMC8448314.

This assay concerns the target Fc-tagged SARS-CoV-2 RBD (residues 319-535, C-terminal human IgG4 Fc region) (SARS-CoV-2 | human) (UniProt P0DTC2). As to the kind of experiment: SEC; Superose 6 Increase 10/300 GL gel filtration of each purified protein alone.

As to “Fc-tagged SARS-CoV-2 RBD (residues 319-535, C-terminal human IgG4 Fc region) (from UniProt P0DTC2 319-535) (Fc fusion)”, the stoichiometry N was 2.
